# PMC7105484, “Crystal structures of REF6 and its complex with DNA reveal diverse recognition mechanisms” (Cell Discovery, 2020)
# Where a chain is given by its changes, count along the chain named. Names may count otherwise.
# T1: REF6 ZnF1-4 WT (Arabidopsis thaliana, UniProt Q9STM3 1223-1360)
# T1 sequence: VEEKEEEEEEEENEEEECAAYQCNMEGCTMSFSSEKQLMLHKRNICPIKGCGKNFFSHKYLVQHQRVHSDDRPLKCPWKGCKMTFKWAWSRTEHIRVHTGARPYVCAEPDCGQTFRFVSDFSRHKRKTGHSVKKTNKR
# T2: REF6 N1276F (Arabidopsis thaliana, UniProt Q9STM3 1223-1360, N1276F)
# T2 sequence: T1 sequence with N54F
# B1: REF6 fragment 1139–1360 (domain or fragment, Arabidopsis thaliana, UniProt Q9STM3 1139-1360, looked up)
# chain: RSTAKRIAKTKTVQSSRDTKGRFLQEFASGKKNEELDSYMEGPSTRLRVRHQKPSRGSLETKPKKIGKKRSGNASFSRVATEKDVEEKEEEEEEEENEEEECAAYQCNMEGCTMSFSSEKQLMLHKRNICPIKGCGKNFFSHKYLVQHQRVHSDDRPLKCPWKGCKMTFKWAWSRTEHIRVHTGARPYVCAEPDCGQTFRFVSDFSRHKRKTGHSVKKTNKR
# notes: source: E. coli BL21 (DE3), purified
# B2: REF6 fragment 1175–1360 (domain or fragment, Arabidopsis thaliana, UniProt Q9STM3 1175-1360, looked up)
# chain: DSYMEGPSTRLRVRHQKPSRGSLETKPKKIGKKRSGNASFSRVATEKDVEEKEEEEEEEENEEEECAAYQCNMEGCTMSFSSEKQLMLHKRNICPIKGCGKNFFSHKYLVQHQRVHSDDRPLKCPWKGCKMTFKWAWSRTEHIRVHTGARPYVCAEPDCGQTFRFVSDFSRHKRKTGHSVKKTNKR
# notes: as for B1
# B3: REF6 (residues 1223–1360) (domain or fragment, Arabidopsis thaliana, UniProt Q9STM3 1223-1360, looked up)
# chain: T1 sequence
# notes: The fusion tag was cleaved with TEV protease 'when necessary'
# B4: CUC1-3 (dsDNA)
# DNA 1: GGACTCTGTTTTAGA
# DNA 2: TCTAAAACAGAGTCC
# B5: CUC1-4 (dsDNA)
# DNA 1: TTACTCTGTTTGTAA
# DNA 2: TTACAAACAGAGTAA
# B6: CUC1-3+4 (dsDNA)
# DNA 1: TCTAAAACAGAGTCCTCCTTACTCTGTTTGTAA
# DNA 2: TTACAAACAGAGTAAGGAGGACTCTGTTTTAGA
# B7: CUC1-1 (dsDNA)
# DNA 1: TTCCTCTGTTCTTAT
# DNA 2: ATAAGAACAGAGGAA
# B8: CUC1-2 (dsDNA)
# DNA 1: AGACTCTGTTTCAGA
# DNA 2: TCTGAAACAGAGTCT
# B9: CUC1-5 (dsDNA)
# DNA 1: TTTCTCTGCTCAAAT
# DNA 2: ATTTGAGCAGAGAAA
# B10: CUC1-6 (dsDNA)
# DNA 1: TTGCTCTGTTCGTTC
# DNA 2: GAACGAACAGAGCAA
# B11: CUC2-1 (dsDNA)
# DNA 1: TTGCTCTGTTAGTTC
# DNA 2: GAACTAACAGAGCAA
# B12: CUC2-2 (dsDNA)
# DNA 1: TCTCTCTGTCTTTTC
# DNA 2: GAAAAGACAGAGAGA
# B13: CUC2-3 (dsDNA)
# DNA 1: TAGCTCTGATAAAAT
# DNA 2: ATTTTATCAGAGCTA
# B14: CUC2-4 (dsDNA)
# DNA 1: TCCCTCTGTGCACGC
# DNA 2: GCGTGCACAGAGGGA
# B15: m12 (G9A) (dsDNA)
# DNA 1: CTTTCTCTATTTTGTC
# DNA 2: GGACAAAATAGAGAAA
# B16: m5-m9'C (dsDNA)
# DNA 1: CTTTCTCTGTTTTGTC
# DNA 2: GGACAAAACAGAGAAA
# modifications: methylcytosine at position 9 of strand 2 (9'C)
# Tests used:
# [1] = target: the molecule itself; assay: SEC; analytical gel filtration, Superdex 200 10/300 GL, 5.0 mg mL^−1, no DNA; 20 mM HEPES pH 7.3, 500 mM NaCl, 2 mM β-mercaptoethanol
# REF6 ZnF1-4 WT [2] = target: T1, REF6 ZnF1-4 WT; assay: MST; MST: 20 mM HEPES pH 7.3, 150 mM NaCl, 0.2 mM TCEP, 0.5% CA-630, 25 C; EMSA: 30 uM protein, 10 uM dsDNA, 20 mM Tris pH 8.0, 100 mM NaCl, 2.5 mM MgCl2, 0.1% CA-630, 10% glycerol, 1 uM ZnSO4, 1 mM DTT, 4 C; conditions: protein: recombinant, tags: His6-MBP or GST tag, TEV-cleavable (cleaved when necessary)
# REF6 N1276F = target: T2, REF6 N1276F; assay: as above; conditions: protein: recombinant; tags: His6-MBP or GST, TEV-cleavable; label: FAM in MST
# REF6 ZnF1-4 WT [3] = target: T1, REF6 ZnF1-4 WT; assay: MST; Hill coefficient 1.9; MST: 20 mM HEPES pH 7.3, 150 mM NaCl, 0.2 mM TCEP, 0.5% CA-630, 25 C; EMSA: 30 uM protein, 10 uM dsDNA, 20 mM Tris pH 8.0, 100 mM NaCl, 2.5 mM MgCl2, 0.1% CA-630, 10% glycerol, 1 uM ZnSO4, 1 mM DTT, 4 C; conditions: protein: recombinant; tags: His6-MBP or GST tag, TEV-cleavable (cleaved when necessary); label: FAM in MST
# REF6 ZnF1-4 WT [4] = target: T1, REF6 ZnF1-4 WT; assay: EMSA; MST: 20 mM HEPES pH 7.3, 150 mM NaCl, 0.2 mM TCEP, 0.5% CA-630, 25 C; EMSA: 30 uM protein, 10 uM dsDNA, 20 mM Tris pH 8.0, 100 mM NaCl, 2.5 mM MgCl2, 0.1% CA-630, 10% glycerol, 1 uM ZnSO4, 1 mM DTT, 4 C; conditions: protein: recombinant, tags: His6-MBP or GST tag, TEV-cleavable (cleaved when necessary)
binder,measurement,setting,value
B1,stoichiometry N,[1],2
B2,stoichiometry N,[1],2
B3,stoichiometry N,[1],2
B4,Kd,REF6 ZnF1-4 WT [2]; label: FAM in MST,1 µM
B5,Kd,REF6 ZnF1-4 WT [2]; label: FAM in MST,2.6 µM
B6,binding signal,REF6 N1276F,2.5 fold lower affinity than WT
same,binding signal,REF6 ZnF1-4 WT [3],5 fold higher affinity than CUC1-3 (13-fold than CUC1-4)
B7,binding result,REF6 ZnF1-4 WT [4]; label: FAM in MST,binds
B8,binding result,REF6 ZnF1-4 WT [4],binds
B9,binding result,REF6 ZnF1-4 WT [4]; label: FAM in MST,binds
B10,binding result,REF6 ZnF1-4 WT [4],binds
B11,binding result,REF6 ZnF1-4 WT [4],binds
B12,binding result,REF6 ZnF1-4 WT [4],binds
B13,binding result,REF6 ZnF1-4 WT [4],binds
B14,binding result,REF6 ZnF1-4 WT [4]; label: FAM in MST,binds
B15,Kd,"REF6 ZnF1-4 WT [2]; label: FAM, 5' overhang 1 nt on both strands (as m5)",4.5 µM
B16,Kd,"REF6 ZnF1-4 WT [2]; label: FAM in MST, 5' overhang 1 nt on both strands (as m5)",5.9 µM
